# Experimental data as given in patent US20050153894 (published 2005).
# Square brackets hold non-standard residues; d marks the D form. Ends that are not written are not given here.
# B1: KAURRLIF (peptide)
# chain: KA[code U]RRLIF
# B2: p21 N-terminus KAURRLFG (peptide)
# chain: KA[code U]RRLFG
# B3: p27 SAURNLFG (peptide)
# chain: SA[code U]RNLFG
# B4: GST-pRb(772-928) (protein)
# chain: ASTRPPTLSPIPHIPRSPYKFPSSPLRIPGGNIYISPLKSPYKISEGLPTPTKMTPRSRILVSIGESFGTSEKFQKINQMVCNSDRVLKRSAEGSNPPKPLKKLRFDIEGSDEADGSKHLPGESKFQQKLAEMTSTRTRMQKQKMNDSMDTSNKEEK
# Columns and labels:
# cyclin D1 = cyclin D1 (human, UniProt P24385); assay: competition
# Sequence of cyclin D1 (P24385 whole entry): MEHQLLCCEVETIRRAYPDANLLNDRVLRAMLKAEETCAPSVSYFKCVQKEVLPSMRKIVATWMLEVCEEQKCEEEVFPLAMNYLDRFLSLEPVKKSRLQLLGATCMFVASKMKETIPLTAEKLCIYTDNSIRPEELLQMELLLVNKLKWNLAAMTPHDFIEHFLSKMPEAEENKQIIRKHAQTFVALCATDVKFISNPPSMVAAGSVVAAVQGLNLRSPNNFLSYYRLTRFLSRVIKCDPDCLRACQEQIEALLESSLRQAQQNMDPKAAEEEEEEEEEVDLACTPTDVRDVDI
# cyclin A = cyclin A (human, UniProt P20248); assay: competition, immobilised p21 peptide
# Sequence of cyclin A (P20248 whole entry): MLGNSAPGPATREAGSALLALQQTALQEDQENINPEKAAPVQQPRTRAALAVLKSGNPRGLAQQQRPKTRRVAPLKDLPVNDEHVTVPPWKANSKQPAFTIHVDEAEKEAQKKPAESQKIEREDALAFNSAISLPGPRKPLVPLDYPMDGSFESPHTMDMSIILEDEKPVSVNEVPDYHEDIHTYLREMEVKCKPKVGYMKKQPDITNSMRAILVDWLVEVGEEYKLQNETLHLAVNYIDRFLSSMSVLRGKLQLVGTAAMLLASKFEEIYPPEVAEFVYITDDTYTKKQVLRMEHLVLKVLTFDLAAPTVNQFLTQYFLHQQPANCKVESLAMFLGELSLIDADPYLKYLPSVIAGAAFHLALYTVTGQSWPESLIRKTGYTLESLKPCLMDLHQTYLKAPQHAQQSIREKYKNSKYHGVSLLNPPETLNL
Binder,IC50 (cyclin D1),IC50 (cyclin A)
B1,20 µM,–
B2,134 µM,–
B3,> 200 µM,–
B4,–,9 µM
